In one data set the test system is P. expansum. Description: Pathogenicity assay in apples (EaAiiA).
Data set [1] can be described thus: Enzyme kinetics analysis of EaAiiA with patulin. To be noted: 0.05 μM EaAiiA, patulin 0-0.4 mM, pH 7.5, 100 μM ZnCl2.
Procedure: (6A) Michaelis-Menten kinetics analysis with 0.05 μM purified bacterial lactonase (EaAiiA), in activity buffer containing 100 mM Tris pH 7.5, 100 mM NaCl, 100 μM ZnCl2, at Error bars indicate standard deviation of three replicates for each treatment.
Enzyme kinetics analysis with patulin. EaAiiA activity (0.05 μM) with patulin was analyzed as follows: EaAiiA activity was measured by detecting the reduction in the UV absorbance (detected at 278 nm) of patulin at different concentrations (0-0.4 mM) in the presence of enzyme at a final concentration of 0.05 μM, in an activity buffer containing 100 mM Tris pH 7.5, 100 mM NaCl, 100 μM ZnCl2, in UV 96-well plates. An activity buffer was used as a negative control. The activity was monitored in a microtiter plate reader (BioTeK, Winooski, VT, USA). Reactions were performed as the concentration of organic solvent was lower than 1%. Vo initial rates were corrected for the patulin spontaneous hydrolysis background rate performed with an activity buffer. Kinetic parameters were obtained by GraphPad software as fitting initial rates directly to the Michaelis-Menten equation, standard deviations obtained from three independent measurements.

Procedure for P. expansum: The lesion size of the treated apples was measured 3 days after inoculation with P. expansum. Mean values of 18 replicates are presented (**** p<0.0001, according to one-way ANOVA followed by Tukey-Kramer).
Pathogenicity assay in apples. P. expansum spores (50 spores/ml) were incubated in 1 ml LB medium/sterile water at 25° C. 300 rpm either alone or 2 μM EaAiiA, and apples were then inoculated and incubated in the same manner as described above. Enzyme incubated with 50 mM EDTA at 90° C. for 1 hour was used as a negative control (inactivated enzyme).

B1: EaAiiA: AHL lactonase encoded by Erwinia amylovora, metallo-β-lactamase fold (protein, listed as Erwinia amylovora)
chain: MNYHIIPVTAFAQNCSVIWCPETGEAALVDPGGDAQKIKHEIAALGLTVKQILLTHGHLDHVGAAAELAEHYDVPIVGPHKADKFWLDGLPQQSQMFGFDECAPLTPDRWLQEGEVVLVGNTVLEVLLCPGHTPGHIVFFERKARLLVSGDVIFSGGVGRSDFPQGSHQDLIASILNKLLPLGDDVTFIAGHGPMSTLGRERISNPFLQ
As for B1, the “effect of inactivated enzyme on inhibition of fungal colonization” value with P. expansum (EaAiiA inactivated by 90° C. and EDTA prior to incubation with spores) is “fully reduced the inhibition”. The “decline of colonized area” value in the data set on P. expansum (spores incubated with 2 μM EaAiiA prior to apple inoculation, third day after inoculation) is reported as 85%. In addition, the kcat (in general, the maximal rate divided by the concentration of active sites) in data set [1] turned out to be 5.426 ± 1.5 s⁻¹. Also, in data set [1] (read-out: estimated KM), the Km – broadly, the concentration of substrate that gives half-maximal velocity – is 764 ± 284 µM.

Source of the values: patent US20230416704A1, “LACTONASE AND STABILIZED MUTANTS THEREOF FOR TREATING FUNGAL INFECTIONS IN PLANTS” (MIGAL GALILEE RESEARCH INSTITUTE LTD., priority 2020, published 2023).
